Measured values reported in US5733874A, “Stable dry powders” (Novartis Corp., priority 1994, dated 1998).

Test: RP-HPLC chromatogram of recombinant hirudin HV1 in water (FIG. 1)
Format: physicochemical
Conditions: 1 mg/ml hirudin in water
Experimental: RP-HPLC method: A LiChroCART 125-4 column is used (Merck LiChrospher 100 RP-18 5pm). Solvent A is 0.5% ammoniumacetate in acetonitrile/water (10:90), (v:v); solvent B is 0.5% ammoniumacetate in acetonitrile/water (25:75). The elution is performed at 45° C. using a flow rate of 0.5 ml/min. The binary elution is a linear gradient starting at time zero with 23% solvent B and reaching 46% solvent B after 24 minutes. After 2 min at 70% solvent B the column is equilibrated for 7 rain at 23% solvent B.
A typical chromatogram of recombinant hirudin HV1 (CGP 39393) in water using the RP-HPLC (1 mg/ml hirudin) method is shown in FIG. 1.
In FIG. 1, the relative area of the main peak is 95.15%. Storage of hirudin in water at room temperature results in an increase of by products with time. […] The changes which occur can be accelerated by using temperature stress experiments i.e. by storage at elevated temperatures.

desulphatohirudin HV1 [CGP 39393]
relative area of the main peak: 95.15%
